Blank lines part the entries; values can stand above or below the substance they belong to.
How the values were obtained:
[1] = target: Trastuzumab light chain Q38E_Q124E_Q160E_T180E; experiment: SMCA: four chains co-expressed in CHO-3E7, protein A, LC-MS; competing light chain m39
[2] = target: D3H44 light chain Q124E_Q160E_T178E; experiment: SMCA: four chains co-expressed in CHO-3E7, protein A, LC-MS; competing light chain m35
[3] = target: trastuzumab light chain of SMCA design 9820-9823_1 (trastuzumab/cetuximab bispecific system), Q38E_Q124E_Q160E_T180E; experiment: SMCA, LC-MS after co-expression of the four chains; difference from the wild-type trastuzumab/cetuximab construct at the same DNA ratio
[4] = target: trastuzumab light chain of SMCA design 9820-9823_1 (trastuzumab/cetuximab bispecific system), Q38E_Q124E_Q160E_T180E
[5] = target: D3H44 light chain Q124E_V133E; experiment: SMCA: four chains co-expressed in CHO-3E7, protein A, LC-MS; competing light chain m45
[6] = target: D3H44 light chain Q124E_V133E; experiment: SMCA: four chains co-expressed in CHO-3E7, protein A, LC-MS; competing light chain m35
[7] = target: D3H44 light chain Q124R_V133A_S176T_T178R; experiment: SMCA co-expression, LC-MS; competing light chain m12
[8] = target: D3H44 light chain Q124R_V133A_S176T_T178R; experiment: SMCA co-expression, LC-MS; competing light chain m8
[9] = target: Cetuximab light chain F116A_V133G_L135V_S176R; experiment: SMCA co-expression, LC-MS; competing light chain m36
[10] = target: Cetuximab light chain F116A_V133G_L135V_S176R; experiment: SMCA co-expression, LC-MS; competing light chain m36; estimated change (***)
[11] = target: D3H44 light chain Q38R_S131K; experiment: SMCA: H1, H2, L1, L2 co-expressed in CHO-3E7, protein A, LC-MS; competitor light chain m4
[12] = target: Trastuzumab light chain P44F_Q124R_Q160K_T178R; experiment: SMCA: four chains co-expressed in CHO-3E7, protein A, LC-MS; competing light chain m16
[13] = target: Trastuzumab light chain Q38R_S131K; experiment: SMCA: four chains co-expressed in CHO-3E7, protein A, LC-MS; competing light chain m26
[14] = target: Trastuzumab light chain P44F_S131K; experiment: SMCA: four chains co-expressed in CHO-3E7, protein A, LC-MS; competing light chain m16
[15] = target: Cetuximab light chain Q124R_V133A_S176T_T178R; experiment: SMCA co-expression, LC-MS; competing light chain m12
[16] = target: Cetuximab light chain Q124R_V133A_S176T_T178R; experiment: SMCA co-expression, LC-MS; competing light chain m12; estimated change (***)
[17] = target: D3H44 light chain Q124E_Q160E_T180E; experiment: SMCA: four chains co-expressed in CHO-3E7, protein A, LC-MS; competing light chain m21
[18] = target: D3H44 light chain Q124E_N137K_Q160E_S174R_T180E; experiment: SMCA: 2 heavy + 2 light chains co-expressed, protein A, LC-MS; competing light chain m38
[19] = target: D3H44 light chain Q38E_Q124E_Q160E_T180E; experiment: SMCA: four chains co-expressed in CHO-3E7, protein A, LC-MS; competing light chain m28
[20] = target: D3H44 light chain Q124E_Q160E_T180E; experiment: SMCA: four chains co-expressed in CHO-3E7, protein A, LC-MS; competing light chain m18
[21] = target: cetuximab light chain of SMCA design 9820-9823_1 (trastuzumab/cetuximab bispecific system), Q38R_Q124R_Q160K_T178R; experiment: SMCA: H1, H2, L1 and L2 co-expressed in CHO-3E7 cells, protein A purification, deglycosylation, LC-MS; competing light chain is the trastuzumab light chain (L1)
[22] = target: cetuximab light chain of SMCA design 9820-9823_1 (trastuzumab/cetuximab bispecific system), Q38R_Q124R_Q160K_T178R; experiment: SMCA, LC-MS after co-expression of the four chains; difference from the wild-type trastuzumab/cetuximab construct at the same DNA ratio
[23] = target: D3H44 light chain Q38R_Q124R_Q160K_T178R; experiment: SMCA: four chains co-expressed in CHO-3E7, protein A, LC-MS; competing light chain m41
[24] = target: D3H44 light chain V133G_N137K_S174R_S176R; experiment: SMCA co-expression, LC-MS; competing light chain m20
[25] = target: D3H44 light chain V133G_N137K_S174R_S176R; experiment: SMCA: 2 heavy + 2 light chains co-expressed, protein A, LC-MS; competing light chain m48
[26] = target: D3H44 light chain V133G_N137K_S174R_S176R; experiment: SMCA co-expression, LC-MS; competing light chain m24
[27] = target: Cetuximab light chain Q124E_V133W_S176T_T178L_T180E; experiment: SMCA co-expression, LC-MS; competing light chain m2
[28] = target: D3H44 light chain Q124R_Q160K_T178R; experiment: SMCA: H1, H2, L1, L2 co-expressed in CHO-3E7, protein A, LC-MS; competitor light chain m28
[29] = target: D3H44 light chain F116A_V133G_L135V_S176R; experiment: SMCA co-expression, LC-MS; competing light chain m32
[30] = target: D3H44 light chain F116A_V133G_L135V_S176R; experiment: SMCA co-expression, LC-MS; competing light chain m32; estimated change (***)
[31] = target: D3H44 light chain F116A_V133G_L135V_S176R; experiment: SMCA co-expression, LC-MS; competing light chain m36
[32] = target: D3H44 light chain F116A_V133G_L135V_S176R; experiment: SMCA: 2 heavy + 2 light chains co-expressed, protein A, LC-MS; competing light chain m58
[33] = target: D3H44 light chain F116A_V133G_L135V_S176R; experiment: SMCA co-expression, LC-MS; competing light chain m36; estimated change (***)
[34] = target: D3H44 light chain Q124E_Q160E_T180E; experiment: SMCA: H1, H2, L1, L2 co-expressed in CHO-3E7, protein A, LC-MS; competitor light chain m44
[35] = target: D3H44 light chain Q38E_Q124E_Q160E_T180E; experiment: SMCA: H1, H2, L1, L2 co-expressed in CHO-3E7, protein A, LC-MS; competitor light chain m8
[36] = target: Cetuximab light chain V133G_N137K_S174R_S176R; experiment: SMCA co-expression, LC-MS; competing light chain m16; estimated change (***)
[37] = target: Cetuximab light chain V133G_N137K_S174R_S176R; experiment: SMCA co-expression, LC-MS; competing light chain m24
[38] = target: D3H44 light chain Q124E_Q160E_T180E; experiment: SMCA: four chains co-expressed in CHO-3E7, protein A, LC-MS; competing light chain m24

Substance: trastuzumab full-length heavy chain of SMCA design 9820-9823_1 (trastuzumab/cetuximab bispecific system), Q39R_H172R_Q179K (from UniProt P0DOX5 2-448)
Change in % H1L1 Pairing (over all H1 species) with respect to wild type [3]: 6%
% H1L1 Pairing (over all H1 species) [4]: 100%

Substance: D3H44 heavy chain L124W_L143E_K145T_Q179E (from UniProt P0DOX5 2-448)
% H1L1 Pairing (over all H1 species) [7]: 47.7%
Change in % H1L1 Pairing (over all H1 species) with respect to wild type [7]: 7.1%
Change in % H1L1 Pairing (over all H1 species) with respect to wild type [8]: 40.4%

Substance: Cetuximab heavy chain L124E_A139W
% H2L2 Pairing (over all H2 species) [9]: 42.1%
Change in % H2L2 Pairing (over all H2 species) with respect to wild type [10]: 17%

Substance: D3H44 heavy chain Q39E_K145T_Q179E (from UniProt P0DOX5 2-448)
% H1L1 Pairing (over all H1 species) [11]: 100%

Substance: Trastuzumab full-length heavy chain Q39E_K145T_Q179E (from UniProt P0DOX5 2-448)
% H2L2 Pairing (over all H2 species) [13]: 94.3%

Substance: Trastuzumab full-length heavy chain L45P_K145T_H172R_Q179E (from UniProt P0DOX5 2-448)
% H2L2 Pairing (over all H2 species) [14]: 96.3%

Substance: Cetuximab heavy chain L124W_L143E_K145T_Q179E
% H2L2 Pairing (over all H2 species) [15]: 58.1%
Change in % H2L2 Pairing (over all H2 species) with respect to wild type [16]: 33%

Substance: D3H44 full-length heavy chain D146G_Q179K (from UniProt P0DOX5 2-448)
% H1L1 Pairing (over all H1 species) [17]: 100%

Substance: D3H44 heavy chain H172T_Q179K (from UniProt P0DOX5 2-448)
% H1L1 Pairing (over all H1 species) [18]: 100%

Substance: D3H44 full-length heavy chain Q39R_S186R (from UniProt P0DOX5 2-448)
% H1L1 Pairing (over all H1 species) [19]: 100%

Substance: D3H44 full-length heavy chain Q179K (from UniProt P0DOX5 2-448)
% H1L1 Pairing (over all H1 species) [20]: 100%

Substance: Cetuximab heavy chain L124A_L143F_Q179K
Change in % H2L2 Pairing (over all H2 species) with respect to wild type [27]: 1.7%

Substance: D3H44 heavy chain Q39R_S186R (from UniProt P0DOX5 2-448)
% H1L1 Pairing (over all H1 species) [35]: 100%

Substance: Cetuximab heavy chain L124E_H172T
Change in % H2L2 Pairing (over all H2 species) with respect to wild type [36]: 1.6%
% H2L2 Pairing (over all H2 species) [37]: 44%
Change in % H2L2 Pairing (over all H2 species) with respect to wild type [37]: 14.4%

Substance: D3H44 full-length heavy chain H172R_S186R (from UniProt P0DOX5 2-448)
% H1L1 Pairing (over all H1 species) [38]: 100%

Results, then the substance that gave them:

% H2L2 Pairing (over all H2 species) [1]: 100%
Substance: Trastuzumab full-length heavy chain Q39R_H172R_Q179K (from UniProt P0DOX5 2-448)

% H1L1 Pairing (over all H1 species) [2]: 98.2%
Substance: D3H44 full-length heavy chain S186K (from UniProt P0DOX5 2-448)

% H1L1 Pairing (over all H1 species) [5]: 89.2%
% H1L1 Pairing (over all H1 species) [6]: 97.1%
Substance: D3H44 full-length heavy chain L143R (from UniProt P0DOX5 2-448)

% H2L2 Pairing (over all H2 species) [12]: 94.8%
Substance: Trastuzumab full-length heavy chain L45P_L143E_K145T (from UniProt P0DOX5 2-448)

% H2L2 Pairing (over all H2 species) [21]: 52.3%
Change in % H2L2 Pairing (over all H2 species) with respect to wild type [22]: 22.7%
Substance: cetuximab full-length heavy chain of SMCA design 9820-9823_1 (trastuzumab/cetuximab bispecific system), Q39E_L143E_K145T_Q179E

% H1L1 Pairing (over all H1 species) [23]: 86.6%
Substance: D3H44 full-length heavy chain Q39E_L143E_K145T_Q179E (from UniProt P0DOX5 2-448)

% H1L1 Pairing (over all H1 species) [24]: 100%
Change in % H1L1 Pairing (over all H1 species) with respect to wild type [24]: 38.1%
% H1L1 Pairing (over all H1 species) [25]: 100%
% H1L1 Pairing (over all H1 species) [26]: 50.5%
Change in % H1L1 Pairing (over all H1 species) with respect to wild type [26]: 9.9%
Substance: D3H44 heavy chain L124E_H172T (from UniProt P0DOX5 2-448)

% H1L1 Pairing (over all H1 species) [28]: 100%
Substance: D3H44 heavy chain L143E_K145T_H172R (from UniProt P0DOX5 2-448)

% H1L1 Pairing (over all H1 species) [29]: 100%
Change in % H1L1 Pairing (over all H1 species) with respect to wild type [30]: 43.3%
% H1L1 Pairing (over all H1 species) [31]: 46.8%
% H1L1 Pairing (over all H1 species) [32]: 100%
Change in % H1L1 Pairing (over all H1 species) with respect to wild type [33]: 25.8%
Substance: D3H44 heavy chain L124E_A139W (from UniProt P0DOX5 2-448)

% H1L1 Pairing (over all H1 species) [34]: 100%
Substance: D3H44 heavy chain D146G_Q179K (from UniProt P0DOX5 2-448)
